# Article PMC7263589, “Integration of phage and yeast display platforms: A reliable and cost effective approach for binning of peptides as displayed on-phage” (PLoS ONE, 2020)
# Where a chain is given by its changes, count along the chain named. Names and notes keep the numbering of the source. Ends that are not written are not given here.
# B1: peptide 23–447 (free, chemically synthesized) (peptide)
# peptide: LECLYYLRWKVCDN
# modifications: not fully specified (bridges); cysteine pairing not given here
# notes: selected from a peptide phage library against IL-23; Two cysteines; source: synthetic peptide (CPC Scientific)
# B2: wild-type IL-23 displayed on yeast, Q9NPF7;P29460 W137A (protein)
# chain 1: RAVPGGSSPAWTQCQQLSQKLCTLAWSAHPLVGHMDLREEGDEETTNDVPHIQCGDGCDPQGLRDNSQFCLQRIHQGLIFYEKLLGSDIFTGEPSLLPDSPVGQLHASLLGLSQLLQPEGHHWETQQIPSLSPSQPAQRLLLRFKILRSLQAFVAVAARVFAHGAATLSP
# chain 2: IWELKKDVYVVELDWYPDAPGEMVVLTCDTPEEDGITWTLDQSSEVLGSGKTLTIQVKEFGDAGQYTCHKGGEVLSHSLLLLHKKEDGIWSTDILKDQKEPKNKTFLRCEAKNYSGRFTCWWLTTISTDLTFSVKSSRGSSDPQGVTCGAATLSAERVRGDNKEYEYSVECQEDSACPAAEESLPIEVMVDAVHKLKYENYTSSFFIRDIIKPDPPKNLQLKPLKNSRQVEVSWEYPDTWSTPHSYFSLTFCVQVQGKSKREKKDRVFTDKTSATVICRKNASISVRAQDRYYSSSWSEWASVPCS
# B3: wild-type IL-23 displayed on yeast, Q9NPF7;P29460 L141A (protein)
# chain 1: B2 chain 1 with A137W, L141A
# chain 2: B2 chain 2
# B4: IL-23R-FLAG-HIS (receptor)
# chain: GITNINCSGHIWVEPATIFKMGMNISIYCQAAIKNCQPRKLHFYKNGIKERFQITRINKTTARLWYKNFLEPHASMYCTAECPKHFQETLICGKDISSGYPPDIPDEVTCVIYEYSGNMTCTWNAGKLTYIDTKYVVHVKSLETEEEQQYLTSSYINISTDSLQGGKKYLVWVQAANALGMEESKQLQIHLDDIVIPSAAVISRAETINATVPKTIIYWDSQTTIEKVSCEMRYKATTNQTWNVKEFDTNFTYVQQSEFYLEPNIKYVFQVRCQETGKRYWQPWSSLFFHKTPETVPQVTSKAFQHDTWNSGLTVASISTGHLTSDNRGDIG
# modifications: Soluble monomeric ectodomain, FLAG and His tags left out. Limits are not printed in the main text (constructs are in S1 Table of the supplement), so the mature extracellular domain from UniProt …
# B5: peptide 23–437 (free, chemically synthesized) (peptide)
# peptide: FTKEIDSWWLSLMSS
# notes: selected from a peptide phage library against IL-23; No cysteines, 15 residues; source: synthetic peptide (CPC Scientific)
# B6: peptide 23–441 (free, chemically synthesized) (peptide)
# peptide: QKITQCVYIIWTYPCLLNDV
# notes: as for B1
# Tests used:
# IL-23-AVI [1] = biological target: T1, IL-23-AVI (human, UniProt Q9NPF7 20-189; P29460 23-328); assay: SPR; Biacore T200, 25°C, 50 μl/min; 2000–9000 RU of IL-23-AVI captured to streptavidin chip, peptides as analyte (3-fold series, up to 30 μM); 10 mM HEPES pH 7.5, 150 mM NaCl, 0.005% P20, 3% DMSO; multi-cycle, single cycle kinetics for 23–652; 1:1 model; n = 1; details: both partners purified
# T1 construct: IL-23 p19 subunit, human; IL-12/IL-23 p40 subunit, human; Captured on streptavidin chips and beads, so biotinylation of the Avi tag is implied; also called Avi-tagged IL-23; recombinant IL-23
# T1 sequence (looked up) 1: B2 chain 1 with A137W
# T1 sequence (looked up) 2: B2 chain 2
# IL-23-AVI [2] = biological target: T1, IL-23-AVI; assay: AlphaScreen or HTRF; TR-FRET; compounds pre-incubated with IL-23R-FLAG 1 h, then IL-23-AVI; Europium-streptavidin and anti-FLAG-allophycocyanin; 25 mM HEPES, 150 mM NaCl, 0.02% Tween 20, 0.1% BSA, pH 7.4, 1% DMSO; n = 1; details: both partners purified
# IL-23-AVI [3] = biological target: T1, IL-23-AVI; assay: AlphaScreen or HTRF; AlphaLISA; IL-23-AVI (1.5 nM) pre-incubated with peptide 30 min, then FLAG-tagged IL-23R (3 nM); streptavidin donor and anti-FLAG acceptor beads; 25 mM HEPES pH 7.4, 150 mM NaCl, 0.02% Tween 20, 0.1% BSA; room temperature; n = 1; details: both partners purified
# IL-23-HIS = biological target: T2, IL-23-HIS (human, UniProt Q9NPF7 20-189; P29460 23-328); assay: SPR; competition SPR, 25°C; IL-23R-Fc-AVI (<1000 RU) captured on Protein-A; 20 nM IL-23 mixed with one concentration of peptide or cold IL-23R injected 30 s; 10 mM HEPES pH 7.5, 150 mM NaCl, 0.005% P20, 1% BSA; n = 1; details: both partners purified
# T2 construct: IL-23 p19 subunit, human; IL-12/IL-23 p40 subunit, human; also called IL-23 only; IL-23 protein
# T2 sequence (looked up) 1: B2 chain 1 with A137W
# T2 sequence (looked up) 2: B2 chain 2
# [4] = biological target: T3, Fluorescently labeled IL-23R, Q5VWK5; assay: flow cytometry on yeast-displayed IL-23; details: chain shown with the change; n = 1; parent: est. 1.05; read off a plot
# T3 chain: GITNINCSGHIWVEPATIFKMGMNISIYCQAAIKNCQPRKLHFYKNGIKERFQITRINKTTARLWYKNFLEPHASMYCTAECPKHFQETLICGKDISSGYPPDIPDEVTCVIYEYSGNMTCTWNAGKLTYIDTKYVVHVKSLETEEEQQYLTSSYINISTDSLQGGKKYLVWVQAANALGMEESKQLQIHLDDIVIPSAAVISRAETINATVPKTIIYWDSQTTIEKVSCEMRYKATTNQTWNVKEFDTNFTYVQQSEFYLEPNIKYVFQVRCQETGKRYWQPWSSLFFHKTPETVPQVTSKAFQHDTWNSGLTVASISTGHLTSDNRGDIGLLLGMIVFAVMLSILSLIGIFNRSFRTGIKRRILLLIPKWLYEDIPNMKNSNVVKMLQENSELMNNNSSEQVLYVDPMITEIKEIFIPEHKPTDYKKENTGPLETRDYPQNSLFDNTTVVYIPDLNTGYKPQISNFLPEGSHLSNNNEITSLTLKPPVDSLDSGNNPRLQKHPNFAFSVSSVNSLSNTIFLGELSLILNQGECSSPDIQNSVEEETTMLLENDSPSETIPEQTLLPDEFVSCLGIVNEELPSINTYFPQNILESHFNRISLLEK
# IL-23-AVI [5] = biological target: T1, IL-23-AVI; assay: SPR; Biacore T200, 25°C; 200–1000 RU of IL-23-AVI captured to streptavidin chip, IL-23R-FLAG-HIS as analyte, single cycle kinetics; 1:1 model; details: both partners purified
Binder,Kd (IL-23-AVI [1]) [µM],koff (IL-23-AVI [1]) [s⁻¹],kon (IL-23-AVI [1]) [M⁻¹ s⁻¹],IC50 (IL-23-AVI [2]) [µM],IC50 (IL-23-AVI [3]) [µM],% inhibition of IL-23 binding to immobilised IL-23R (peptide at 30 μM) (IL-23-HIS) [%],ratio to parent [4],Kd (IL-23-AVI [5]) [µM],koff (IL-23-AVI [5]) [s⁻¹],kon (IL-23-AVI [5]) [M⁻¹ s⁻¹]
B1,~27.5,~1.33,~48300,24,6.7,78.7,–,–,–,–
B2,–,–,–,–,–,–,0.1,–,–,–
B3,–,–,–,–,–,–,0.1,–,–,–
B4,–,–,–,–,–,–,–,0.00892,0.00151,170000
B5,10.5,1.86,178000,7,1.4,57.6,–,–,–,–
B6,0.911,0.174,190000,5.7,2.5,100,–,–,–,–
